Values quoted from earlier work as cited in publication PMC9590617.

Experiments:
NPFFR2 (Homo sapiens) = NPFFR2 (Homo sapiens) (UniProt Q9Y5X5)
NPFFR1 (Homo sapiens) = NPFFR1 (Homo sapiens) (UniProt Q9GZQ6)
Chain of UniProt Q9GZQ6 (Q9GZQ6 whole entry): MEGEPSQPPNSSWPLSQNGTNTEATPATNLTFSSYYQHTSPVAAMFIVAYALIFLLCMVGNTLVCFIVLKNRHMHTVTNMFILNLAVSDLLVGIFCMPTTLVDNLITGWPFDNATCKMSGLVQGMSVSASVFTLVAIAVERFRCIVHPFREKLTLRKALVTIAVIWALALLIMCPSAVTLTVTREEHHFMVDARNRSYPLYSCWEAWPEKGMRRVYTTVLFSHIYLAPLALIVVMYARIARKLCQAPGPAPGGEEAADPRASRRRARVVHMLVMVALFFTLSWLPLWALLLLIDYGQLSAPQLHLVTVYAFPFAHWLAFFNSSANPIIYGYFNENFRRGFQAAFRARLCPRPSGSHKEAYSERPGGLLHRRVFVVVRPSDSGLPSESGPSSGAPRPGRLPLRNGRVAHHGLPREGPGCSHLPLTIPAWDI

Chain of UniProt Q9Y5X5 (Q9Y5X5 whole entry): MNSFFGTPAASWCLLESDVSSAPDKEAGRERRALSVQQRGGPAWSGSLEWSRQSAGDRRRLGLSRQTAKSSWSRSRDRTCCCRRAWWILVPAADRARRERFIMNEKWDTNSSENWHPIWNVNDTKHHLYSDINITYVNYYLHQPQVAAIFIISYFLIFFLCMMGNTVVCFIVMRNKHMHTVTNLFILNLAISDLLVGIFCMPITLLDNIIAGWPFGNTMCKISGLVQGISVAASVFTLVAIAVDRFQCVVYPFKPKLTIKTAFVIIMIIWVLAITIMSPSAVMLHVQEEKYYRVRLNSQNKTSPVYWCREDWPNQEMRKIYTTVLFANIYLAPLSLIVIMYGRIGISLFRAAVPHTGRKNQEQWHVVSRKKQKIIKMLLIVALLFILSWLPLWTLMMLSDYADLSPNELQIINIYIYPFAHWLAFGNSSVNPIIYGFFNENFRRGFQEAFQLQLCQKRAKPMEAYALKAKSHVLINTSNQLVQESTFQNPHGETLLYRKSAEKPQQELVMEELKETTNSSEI

Kd (NPFFR2 (Homo sapiens)): 0.37 nM | Kd (NPFFR1 (Homo sapiens)): 1.13 nM
Substance: Neuropeptide FF (from UniProt O15130)
